Measurements: patent publication US20230151111A1 (AKESO BIOPHARMA, published 2023)

T1: CD73 on cell membrane surface (MDA-MB-231, U87-MG) (human, UniProt P21589 27-549)
T1 construct: whole, on cells; also called NT5E
T1 sequence (looked up): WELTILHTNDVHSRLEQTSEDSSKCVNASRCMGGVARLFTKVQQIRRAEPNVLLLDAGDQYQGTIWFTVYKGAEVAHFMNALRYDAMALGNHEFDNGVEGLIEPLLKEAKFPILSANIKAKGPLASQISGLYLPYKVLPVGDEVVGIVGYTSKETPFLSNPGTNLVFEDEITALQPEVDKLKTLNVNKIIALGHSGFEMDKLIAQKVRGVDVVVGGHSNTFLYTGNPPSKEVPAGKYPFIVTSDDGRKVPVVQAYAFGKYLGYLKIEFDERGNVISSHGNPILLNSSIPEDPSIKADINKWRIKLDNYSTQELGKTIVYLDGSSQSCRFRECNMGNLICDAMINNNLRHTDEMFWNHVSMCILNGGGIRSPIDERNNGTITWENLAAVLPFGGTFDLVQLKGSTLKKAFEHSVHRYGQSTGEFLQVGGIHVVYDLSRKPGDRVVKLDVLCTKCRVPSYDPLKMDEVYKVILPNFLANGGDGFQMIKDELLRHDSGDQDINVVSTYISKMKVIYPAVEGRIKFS


What was measured:
[1] = molecular target: T2, PD-1 on 293T-PD1 cell surface (human, UniProt Q15116 25-288); test: flow cytometry, 293T-PD1 cells; antibody 1.23 nM
T2 construct: whole, on cells
Experimental: (§1) 500 μL of PBSA was added, and the mixture was centrifuged at 5600 rpm for 5 min to remove the supernatant. […] The system was mixed gently and uniformly, and then was incubated on ice for 1 h. Then 500 μL of PBSA was added, and the mixture was centrifuged at 5600 rpm for 5 min to remove the supernatant. […] 500 μL of PBSA was added, and the mixture was centrifuged at 5600 rpm for 5 min to remove the supernatant. At last, 200 μL of PBSA was added to resuspend cell precipitates, and the mixture was transferred to a flow tube for FACSCalibur detection.

[2] = molecular target: T2, PD-1 on 293T-PD1 cell surface; test: flow cytometry, 293T-PD1 cells; antibody 100.00 nM
Experimental: as §1

[3] = molecular target: T1, CD73 on cell membrane surface …; test: flow cytometry, MDA-MB-231 cells; antibody 11.11 nM
Experimental: (§2) MDA-MB-231 cells in logarithmic phase were digested with conventional trypsin and transferred to a 1.5 mL centrifuge tube at 3×10⁵ cells/tube. 500 μL of PBSA was added, and the mixture was centrifuged at 5600 rpm for 5 min to remove the supernatant. […] The system was mixed gently and uniformly, and then was incubated on ice for 1 h. Then 500 μL of PBSA was added, and the mixture was centrifuged at 5600 rpm for 5 min to remove the supernatant. […] 500 μL of PBSA was added, and the mixture was centrifuged at 5600 rpm for 5 min to remove the supernatant. At last, 200 μL of PBSA was added to resuspend cell precipitates, and the mixture was transferred to a flow tube for FACSCalibur detection.

[4] = molecular target: T2, PD-1 on 293T-PD1 cell surface; test: flow cytometry, 293T-PD1 cells; antibody 0.41 nM
Experimental: as §1

[5] = molecular target: T2, PD-1 on 293T-PD1 cell surface; test: flow cytometry, 293T-PD1 cells; antibody 0.14 nM
Experimental: as §1

[6] = molecular target: T1, CD73 on cell membrane surface …; test: flow cytometry, MDA-MB-231 cells; antibody 0.14 nM
Experimental: as §2

[7] = molecular target: T1, CD73 on cell membrane surface …; test: flow cytometry, MDA-MB-231 cells; antibody 33.33 nM
Experimental: as §2

[8] = molecular target: T2, PD-1 on 293T-PD1 cell surface; test: flow cytometry, 293T-PD1 cells
Experimental: as §1

PD-1-mFc = molecular target: T3, PD-1-mFc (human, UniProt Q15116 25-170, limits assumed); test: ELISA, PD-1-mFc coated
T3 construct: also called human PD-1-mFc
Experimental: A microplate was coated with PD-1-mFc at 0.5 μg/mL and incubated at 4° C. overnight. Then the microplate coated with antigens was washed once with PBST, and then blocked with a PBS solution containing 1% BSA as blocking solution at 37° C. for 2 h. After blocking, the microplate was washed 3 times with PBST. The microplate containing the test antibodies was incubated at 37° C. for 30 min, and then washed 3 times with PBST. […] After incubation, the plate was washed 4 times with PBST, TMB (Neogen, 308177) was added in the dark for chromogenesis for 5 min, and then a stop solution was added to terminate chromogenic reaction. The microplate was put into a microplate reader immediately, and the OD value of each well in the microplate was read at 450 nm. The data were analyzed and processed by SoftMax Pro 6.2.1,

[9] = molecular target: T2, PD-1 on 293T-PD1 cell surface; test: flow cytometry, 293T-PD1 cells; antibody 3.70 nM
Experimental: as §1

human PD-1-mFc-biotin = human PD-1-mFc-biotin (human, UniProt Q15116 25-170, limits assumed, biotin label, site not stated); test: competitive ELISA, blocking of PD-1-mFc-biotin binding to coated PD-L1-mFc
Experimental: After incubation, the microplate was blocked with a PBS solution containing 1% BSA at 37° C. for 2 h. After blocking, the plate was washed three times and dried. The antibody was serially diluted to 7 concentrations in a gradient ratio of 1:3 on a dilution plate with 10 μg/mL as the starting concentration, and a blank control was set. […] Then the mixture after reaction was added to the coated microplate, and the microplate was incubated for at 37° C. for 30 min. After incubation, the plate was washed three times with PBST and dried. SA-HRP (KPL, 14-30-00) working solution was added, and the plate was incubated at 37° C. for 30 min. After incubation, the plate was washed four times and patted dry. Then TMB (Neogen, 308177) was added in the dark for chromogenesis for 5 min, and a stop solution was added to terminate chromogenic reaction. Then the microplate was put into a microplate reader immediately, and the OD value of each well in the microplate was read at 450 nm. The data were analyzed and processed by SoftMax Pro 6.2.1.

[10] = molecular target: T2, PD-1 on 293T-PD1 cell surface; test: flow cytometry, 293T-PD1 cells; antibody 0.05 nM
Experimental: as §1

T2 sequence (Q15116 25-288): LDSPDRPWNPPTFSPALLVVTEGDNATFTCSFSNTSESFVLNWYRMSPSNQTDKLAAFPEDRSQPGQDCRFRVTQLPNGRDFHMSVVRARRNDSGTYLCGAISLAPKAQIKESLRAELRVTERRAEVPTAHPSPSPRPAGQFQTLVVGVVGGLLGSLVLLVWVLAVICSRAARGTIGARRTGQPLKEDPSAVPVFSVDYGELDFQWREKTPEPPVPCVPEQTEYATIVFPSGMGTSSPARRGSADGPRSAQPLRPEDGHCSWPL
T3 sequence (Q15116 other isoform, or with tags, fused parts or gaps limits assumed): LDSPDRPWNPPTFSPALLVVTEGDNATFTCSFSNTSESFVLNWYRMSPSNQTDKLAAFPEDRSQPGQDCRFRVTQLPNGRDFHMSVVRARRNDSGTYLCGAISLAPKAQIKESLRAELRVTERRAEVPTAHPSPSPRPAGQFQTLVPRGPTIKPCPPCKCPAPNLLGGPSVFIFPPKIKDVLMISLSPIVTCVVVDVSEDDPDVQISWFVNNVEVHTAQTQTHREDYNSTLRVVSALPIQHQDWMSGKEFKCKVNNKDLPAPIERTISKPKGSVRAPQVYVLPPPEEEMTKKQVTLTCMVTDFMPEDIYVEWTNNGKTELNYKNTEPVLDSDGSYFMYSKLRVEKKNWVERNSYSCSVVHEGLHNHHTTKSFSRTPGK
Chain of human PD-1-mFc-biotin (Q15116 other isoform, or with tags, fused parts or gaps limits assumed): as above

| FACS signal [1] | FACS signal [2] | FACS signal [3] | FACS signal [4] | FACS signal [5] | FACS signal [6] | FACS signal [7] | EC50 [8] [nM] | EC50 (PD-1-mFc) [nM] | FACS signal [9] | EC50 (human PD-1-mFc-biotin) [nM] | FACS signal [10] | Binder |
| --- | --- | --- | --- | --- | --- | --- | --- | --- | --- | --- | --- | --- |
| 307 | 531 | 561 | 151 | 58.6 | 38 | 526 | 1 | 0.078 | 531 | 1.11 | 26.6 | P1D7V01 (bispecific antibody, human IgG1, kappa, Morrison form IgG-scFv) heavy: not shown light: DIQMTQSPSSMSASVGDRVTFTCRASQDINTYLSWFQQKPGKSPKTLIYRANRLVSGVPSRFSGSGSGQDYTLTISSLQPEDMATYYCLQYDEFPLTFGAGTKLELKRTVAAPSVFIFPPSDEQLKSGTASVVCLLNNFYPREAKVQWKVDNALQSGNSQESVTEQDSKDSTYSLSSTLTLSKADYEKHKVYACEVTHQGLSSPVTKSFNRGEC |
| 289 | 343 | 525 | 118 | 49.2 | 44 | 576 | 1.38 | 0.075 | 385 | 1.15 | 24.1 | P1D7V03 (bispecific antibody, human IgG1, kappa, Morrison form IgG-scFv) heavy: not shown light: DIQMTQSPSSMSASVGDRVTFTCRASQDINTYLSWFQQKPGKSPKTLIYRANRLVSGVPSRFSGSGSGQDYTLTISSLQPEDMATYYCLQYDEFPLTFGAGTKLELKRTVAAPSVFIFPPSDEQLKSGTASVVCLLNNFYPREAKVQWKVDNALQSGNSQESVTEQDSKDSTYSLSSTLTLSKADYEKHKVYACEVTHQGLSSPVTKSFNRGEC |
